Source: paper PMC3971956

Columns and labels:
Assay in all cases: SAXS
ABC = ABC (human, UniProt P09874 1-373)
AB = AB (human, UniProt P09874 1-232)
PARP-1 full-length = PARP-1 full-length (human, UniProt P09874 1-1014)

Measured: binding result

Chain of ABC (P09874 1-373): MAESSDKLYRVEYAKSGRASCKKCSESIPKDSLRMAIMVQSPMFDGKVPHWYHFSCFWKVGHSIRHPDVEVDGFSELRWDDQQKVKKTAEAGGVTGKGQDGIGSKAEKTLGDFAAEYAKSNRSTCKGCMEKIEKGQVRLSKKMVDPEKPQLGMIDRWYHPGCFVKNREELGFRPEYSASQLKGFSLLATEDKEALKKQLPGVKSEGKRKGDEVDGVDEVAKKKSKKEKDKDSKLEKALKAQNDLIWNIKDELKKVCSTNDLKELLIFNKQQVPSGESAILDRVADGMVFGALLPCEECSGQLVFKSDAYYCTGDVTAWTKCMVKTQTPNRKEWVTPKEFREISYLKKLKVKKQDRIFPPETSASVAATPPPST
Chain of AB (P09874 1-232): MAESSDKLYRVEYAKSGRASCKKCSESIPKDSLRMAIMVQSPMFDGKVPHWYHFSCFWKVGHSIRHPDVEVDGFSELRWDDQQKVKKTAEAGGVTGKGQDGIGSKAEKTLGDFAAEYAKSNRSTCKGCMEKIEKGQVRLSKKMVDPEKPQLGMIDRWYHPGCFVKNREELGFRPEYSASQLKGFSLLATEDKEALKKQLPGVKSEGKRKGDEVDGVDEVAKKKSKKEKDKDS
Chain of PARP-1 full-length (P09874 whole entry): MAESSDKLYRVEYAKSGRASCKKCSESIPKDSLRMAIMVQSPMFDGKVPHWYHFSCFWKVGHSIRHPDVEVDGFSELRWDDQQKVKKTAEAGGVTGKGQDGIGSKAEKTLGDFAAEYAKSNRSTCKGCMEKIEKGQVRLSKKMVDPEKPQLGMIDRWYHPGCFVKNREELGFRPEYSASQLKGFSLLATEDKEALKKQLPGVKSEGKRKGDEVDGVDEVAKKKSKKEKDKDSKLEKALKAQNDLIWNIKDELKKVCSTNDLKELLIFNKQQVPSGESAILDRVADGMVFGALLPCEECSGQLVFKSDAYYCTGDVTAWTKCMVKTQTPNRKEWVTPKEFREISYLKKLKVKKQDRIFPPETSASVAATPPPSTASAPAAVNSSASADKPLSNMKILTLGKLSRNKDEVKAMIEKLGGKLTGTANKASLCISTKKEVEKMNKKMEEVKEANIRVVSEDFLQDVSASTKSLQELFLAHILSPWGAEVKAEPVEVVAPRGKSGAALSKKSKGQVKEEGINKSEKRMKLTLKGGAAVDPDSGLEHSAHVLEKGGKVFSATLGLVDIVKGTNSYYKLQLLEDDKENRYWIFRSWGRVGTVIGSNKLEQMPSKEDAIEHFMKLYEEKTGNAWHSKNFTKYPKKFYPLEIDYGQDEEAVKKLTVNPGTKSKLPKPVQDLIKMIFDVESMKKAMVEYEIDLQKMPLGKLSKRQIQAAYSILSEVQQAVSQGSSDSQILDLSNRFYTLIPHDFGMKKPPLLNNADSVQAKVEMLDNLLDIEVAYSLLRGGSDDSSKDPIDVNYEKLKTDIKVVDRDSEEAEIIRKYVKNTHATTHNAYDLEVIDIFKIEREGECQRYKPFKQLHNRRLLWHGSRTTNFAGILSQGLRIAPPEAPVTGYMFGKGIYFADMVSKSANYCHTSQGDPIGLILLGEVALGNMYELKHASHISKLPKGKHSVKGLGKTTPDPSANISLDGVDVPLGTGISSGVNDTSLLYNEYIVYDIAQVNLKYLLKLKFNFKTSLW

B1: 8-mer DNA (dsDNA)
DNA 1: GGAATTCC
DNA 2: GGAATTCC
binds: all assays above
